Molecular target: IL-1 receptor (human) (UniProt P14778)
Test: cell-based or functional assay

Sequence of UniProt P14778 (P14778 18-569): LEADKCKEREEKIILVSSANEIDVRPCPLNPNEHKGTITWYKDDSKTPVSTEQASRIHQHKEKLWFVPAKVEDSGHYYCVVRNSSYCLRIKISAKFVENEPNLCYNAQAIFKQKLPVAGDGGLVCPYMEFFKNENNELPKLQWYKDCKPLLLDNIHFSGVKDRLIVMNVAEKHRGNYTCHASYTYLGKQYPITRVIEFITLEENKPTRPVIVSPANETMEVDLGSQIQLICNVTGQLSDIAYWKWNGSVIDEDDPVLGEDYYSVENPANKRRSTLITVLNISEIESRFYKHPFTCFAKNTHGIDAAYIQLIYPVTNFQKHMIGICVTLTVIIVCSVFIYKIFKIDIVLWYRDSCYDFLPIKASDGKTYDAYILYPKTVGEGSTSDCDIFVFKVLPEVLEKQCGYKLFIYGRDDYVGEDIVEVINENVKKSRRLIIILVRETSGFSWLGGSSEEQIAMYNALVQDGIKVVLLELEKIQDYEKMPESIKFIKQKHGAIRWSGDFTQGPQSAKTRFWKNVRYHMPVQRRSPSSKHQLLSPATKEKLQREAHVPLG

IC50, inhibition of IL-1β stimulated release of IL-8 in human whole blood (100 pM rhIL-1β, IL-8 ELISA): 53.4 pM
Substance: Kineret® (anakinra) (from UniProt P18510 26-177) (ligand)
